Measurements published in PMC12667517, “Gigaxonin Potentiates Antiviral Innate Immune Responses by Targeting cGAS and TREX1” (Advanced Science, 2025).

T1: endogenous IRF3 in THP-1 cells (human (endogenous in THP-1)), Q14653
T1 chain: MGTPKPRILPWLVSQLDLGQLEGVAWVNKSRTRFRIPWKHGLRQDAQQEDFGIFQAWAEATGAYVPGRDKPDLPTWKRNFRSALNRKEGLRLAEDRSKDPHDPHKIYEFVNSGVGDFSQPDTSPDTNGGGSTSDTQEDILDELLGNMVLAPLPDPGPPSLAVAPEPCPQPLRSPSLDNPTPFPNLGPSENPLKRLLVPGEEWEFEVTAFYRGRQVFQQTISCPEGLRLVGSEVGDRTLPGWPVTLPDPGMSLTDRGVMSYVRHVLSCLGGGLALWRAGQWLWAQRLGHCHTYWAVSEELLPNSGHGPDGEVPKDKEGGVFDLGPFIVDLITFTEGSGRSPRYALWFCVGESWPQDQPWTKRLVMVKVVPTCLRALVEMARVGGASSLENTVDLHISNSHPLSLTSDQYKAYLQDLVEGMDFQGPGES

B1: endogenous IRF3 in THP-1 cells, Q14653 1-427 (natural protein)
chain: MGTPKPRILPWLVSQLDLGQLEGVAWVNKSRTRFRIPWKHGLRQDAQQEDFGIFQAWAEATGAYVPGRDKPDLPTWKRNFRSALNRKEGLRLAEDRSKDPHDPHKIYEFVNSGVGDFSQPDTSPDTNGGGSTSDTQEDILDELLGNMVLAPLPDPGPPSLAVAPEPCPQPLRSPSLDNPTPFPNLGPSENPLKRLLVPGEEWEFEVTAFYRGRQVFQQTISCPEGLRLVGSEVGDRTLPGWPVTLPDPGMSLTDRGVMSYVRHVLSCLGGGLALWRAGQWLWAQRLGHCHTYWAVSEELLPNSGHGPDGEVPKDKEGGVFDLGPFIVDLITFTEGSGRSPRYALWFCVGESWPQDQPWTKRLVMVKVVPTCLRALVEMARVGGASSLENTVDLHISNSHPLSLTSDQYKAYLQDLVEGMDFQGPGES
B2: endogenous gigaxonin in THP-1 cells (natural protein, human (endogenous in THP-1), UniProt Q9H2C0 1-597, looked up)
chain: MAEGSAVSDPQHAARLLRALSSFREESRFCDAHLVLDGEEIPVQKNILAAASPYIRTKLNYNPPKDDGSTYKIELEGISVMVMREILDYIFSGQIRLNEDTIQDVVQAADLLLLTDLKTLCCEFLEGCIAAENCIGIRDFALHYCLHHVHYLATEYLETHFRDVSSTEEFLELSPQKLKEVISLEKLNVGNERYVFEAVIRWIAHDTEIRKVHMKDVMSALWVSGLDSSYLREQMLNEPLVREIVKECSNIPLSQPQQGEAMLANFKPRGYSECIVTVGGEERVSRKPTAAMRCMCPLYDPNRQLWIELAPLSMPRINHGVLSAEGFLFVFGGQDENKQTLSSGEKYDPDANTWTALPPMNEARHNFGIVEIDGMLYILGGEDGEKELISMECYDIYSKTWTKQPDLTMVRKIGCYAAMKKKIYAMGGGSYGKLFESVECYDPRTQQWTAICPLKERRFGAVACGVAMELYVFGGVRSREDAQGSEMVTCKSEFYHDEFKRWIYLNDQNLCIPASSSFVYGAVPIGASIYVIGDLDTGTNYDYVREFKRSTGTWHHTKPLLPSDLRRTGCAALRIANCKLFRLQLQQGLFRIRVHSP
notes: By native PAGE both dimer and monomer in the steady state; source: endogenous, THP-1 lysate

Columns and labels:
[1] = biological target: T1, endogenous IRF3 in THP-1 cells (human …); experiment: native gel or EMSA; native PAGE of THP-1 cell lysates, cells infected with HSV-1 (MOI = 1) for the indicated times; details: remark: other sources report otherwise
[2] = biological target: the molecule itself; experiment: as above

Row | Binder | stoichiometry N [1] | stoichiometry N [2]
1 | B1 | 2 | –
2 | B2 | – | 2
